These are literature values, as cited in patent US20120058953A1, “COMPOSITIONS AND METHODS FOR ENHANCING APOPTOSIS” (Genentech, Inc., priority 2003, published 2012).

The test system of the data set is U87MG glioma cells. Conditions: athymic mice; Fulda et al. (2002); cited from earlier work.

B1: APO2L/TRAIL: pro-apoptotic polypeptide APO2L/TRAIL (Accession Number: TN10_HUMAN) (protein, UniProt P50591 1-281, looked up)
Tumor necrosis factor ligand …: MAMMEVQGGPSLGQTCVLIVIFTVLLQSLCVAVTYVYFTNELKQMQDKYSKSGIACFLKEDDSYWDPNDEESMNSPCWQVKWQLRQLVRKMILRTSEETISTVQEKQQNISPLVRERGPQRVAAHITGTRGRSNTLSSPNSKNEKALGRKINSWESSRSGHSFLSNLHLRNGELVIHEKGFYYIYSQTYFRFQEEIKENTKNDKQMVQYIYKYTSYPDPILLMKSARNSCWSKDAEYGLYSIYQGGIFELKENDRIFVSVTNEHLIDMDHEASFFGAFLVG
Turning to B1, the “effect on established tumor” value is “reduction in size of the tumor”.
